Measurements as given in the supplement of paper PMC12042874.
± gives the uncertainty stated by the source.

Experiment: amyloid nucleation score (Sup35N fusion, yeast selection) (log enrichment); library NNK2; higher = more nucleation; inactive = no reads after selection
Procedure, shortened: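 Output and input plasmid inserts were sequenced by Illumina after psi-negative yeast carrying Sup35N fused to peptides of 20 random codons had been induced 24 hours with 100 μM copper sulfate and grown 7 days at 30°C on medium lacking adenine and uracil. The nucleation score is the DiMSum log enrichment of output over input reads, centred on the mode score of non-aggregating sequences. Sequences with under 100 input reads were excluded.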

Row | Substance | amyloid nucleation score
1 | LWFGTIHNNTVGSNIDFTFT | 4.71 ± 0.092
2 | RYDSMIHRSVGWPGSYNKGH | -0.287 ± 0.31
3 | DAWKLNTDIYSANRYFIDLV | -0.651 ± 0.27
4 | SIFYLEGDHDLTTCTDLNTF | 3.13 ± 0.094
5 | IDSILICIMHDCIYIEYLRN | 4.44 ± 0.094
6 | AWSVIEGFQHREAFVTYRGQ | 3.7 ± 0.063
7 | DSVCYNFNFNTF | 5.711 ± 0.027
8 | HMSVGNFLIPLCITMLRGIG | -0.347 ± 1.1
9 | IRVGICAVDGPACKRLYSCM | -0.176 ± 0.35
10 | GVVLNLDTWLVDEVPDGVRM | 0.057 ± 0.76
11 | YPVCGCRLSRLVHNSTVDKV | 0.639 ± 0.46
12 | LLSPYMLRLMV | -0.299 ± 0.79
13 | DIVQIWCWFRGC | 10.25 ± 0.029
14 | SIWYLGGC | -0.02 ± 0.42
15 | NGCSFRGNCCDSGERNVVEV | 0.071 ± 0.6
16 | RNGVLTEARHLSVSGEERRV | -0.316 ± 0.8
17 | SFNVSTMRLQIVSVLRKSRR | 0.236 ± 1.1
18 | MIWNCTVFFLGDGAPLCGLC | 8.5 ± 0.064
19 | NFFRAENVYCSMLFSKGWDW | 6.966 ± 0.049
20 | IPTSYSRPITIWGYR | -1.3 ± 0.64
21 | IDYHD | -1.45 ± 0.78
22 | SRVIVTDFVNSNATA | 0.218 ± 0.51
23 | FCMAISFQCVNTRGFMPTAG | 7.394 ± 0.071
24 | NNCVQTGSGGGGRCLRDTCG | 3.8 ± 0.085
25 | IPYGMSWTWSH | -0.565 ± 0.3
26 | WCSVLRDNKLSR | -1.09 ± 0.45

Row | Substance | amyloid nucleation score
27 | SIRSVILLCATLTSVGASLS | 2.14 ± 0.14
28 | KATWS | -1.2 ± 0.76
29 | FVLSMVLSIILLSLSHHLFG | 2.33 ± 0.2
30 | MSYGNAYNTPKCDKHSVIPY | 0.738 ± 0.37
31 | PTMEPVVHITLDCVYKDF | inactive
32 | VLINEHYGYRFFCFNCADGK | 8.228 ± 0.036
33 | VSLNCKRRALMTWYVKGLFG | -0.073 ± 0.22
34 | YDRDCTRPCSPSSRGNFRDE | inactive
35 | ATNNPVMNFAGLAKECFAYM | -0.106 ± 0.79
36 | VENLRNTIPKKEIGFSSVTG | -0.105 ± 0.3
37 | FPASHRVVQV | 5.41 ± 0.065
38 | KMTYP | 2.14 ± 0.13
39 | CFEVFRFRRNRSLISPYQRM | 0.612 ± 0.62
40 | TEIRLNVSLRSRRGPCPTRL | 6.06 ± 0.06
41 | GLNVHVVRLGIQLFFKWNDI | 1.74 ± 0.18
42 | TRGITCRLAYLQSLVNE | 0.383 ± 0.43
43 | NVHCILMSGVMGIQYRWKVL | 0.395 ± 0.51
44 | TGNVTGRLFWNVFVRYSGVL | -0.03 ± 0.55
45 | HRNQTASKGCSCLLDCHDTG | 0.356 ± 0.23
46 | RPKTEDCGLNLSTVLNQVGH | 0.111 ± 0.19
47 | ERYVCKGC | inactive
48 | LYIIMMICIQSLFRYRGIKG | -0.975 ± 0.78
49 | CSCFWCRRRKNYKFLGGCGS | -1.25 ± 1.1
50 | FWYSCR | -0.889 ± 0.41
51 | CPISCTYMEYTSWSSSRC | 1.18 ± 0.44
52 | VLTFRRMHD | 0.398 ± 0.65

Row | Substance | amyloid nucleation score
53 | PDFYMYPSLNDKSDLI | -0.78 ± 0.76
54 | RSFEVKLFARSLKHIPDLTP | 1.02 ± 0.35
55 | SADRECCQHEFGASPRLRVG | 4.907 ± 0.041
56 | YYWGAGTQHGYLFTFVGGND | -0.326 ± 1
57 | VIYLHVYGCVNLVSVLVHSL | 1.87 ± 0.12
58 | MLDYFGLWSWARSSNYLEFK | -1.09 ± 0.31
59 | GKFLCDV | 0.775 ± 0.31
60 | RFKWK | 3.67 ± 0.11
61 | DAWFVINHHPIEYLSLRVWR | 0.98 ± 0.27
62 | VCDFNVLDGCGNPGLL | -0.67 ± 1.1
63 | ASYRKWNTCPIMYEVSCRYY | inactive
64 | PSAVRTILVTAI | -0.447 ± 0.35
65 | SAHLYALGNSRHFIYVPVEL | inactive
66 | FRHYSYRRWQSLHKIVGICH | inactive
67 | CSMMNLKSFLADCSIPAFTG | -0.962 ± 0.64
68 | VLHKNTKMANTWVHNPTEVE | -0.328 ± 0.27
69 | RTVLGGWMANWASHNILVQC | 0.316 ± 0.39
70 | VMFSVDHRLTQ | -0.354 ± 0.35
71 | VNIWAVNICC | 7.8 ± 0.048
72 | QFSCRCN | 0.011 ± 0.79
73 | YSIYEYG | 1.41 ± 0.15
74 | GVLMIYYWVSMCLYALLIVF | inactive
75 | DSGFFWCV | inactive
76 | WEIRNAYVQVT | -0.178 ± 0.39
77 | FNVDKRPRSDVCLAGCISD | -0.825 ± 0.56
78 | SIKGGSIEIEMYELESWVQL | -0.791 ± 1.1

Row | Substance | amyloid nucleation score
79 | DQALGGEMWWL | -0.14 ± 0.45
80 | SCIDCLRLSLLSGCIHWVNY | 0.509 ± 0.8
81 | IISGAFRCARNGY | 1.62 ± 0.3
82 | MRRSLFMCILVYDSWLYFSV | 3.15 ± 0.17
83 | IYLCTDSLSYRSFVRGN | 1.18 ± 0.17
84 | LAHGPWGVSGDSV | 0.019 ± 1.1
85 | NCVNPDYGLLQQLSRYLVVC | -0.764 ± 0.64
86 | RPYNPFPLCILRWRPELL | inactive
87 | PKRSCLVLGYNIVITDMQAR | 6.28 ± 0.067
88 | NVGGIASLGPFTY | -0.14 ± 0.27
89 | LILLY | -0.277 ± 1
90 | NPGETDQRQSWSCSDCPAFS | 1.51 ± 0.35
91 | NMPEFC | 0.283 ± 0.21
92 | QCMTKKLEISQY | -0.492 ± 1
93 | TICVSSVRRTGKGSWVRDWA | 0.356 ± 0.5
94 | IRSKSWVVDTQFRPIDSLLV | 0.646 ± 0.49
95 | SKLEENIPKLVTRYQCGTGR | 0.143 ± 0.37
96 | FRGSAFS | 7.173 ± 0.051
97 | WYSQVPERALRQWGFFSLGG | 0.397 ± 0.46
98 | ECDYRTLSLNMVLNYCRKGG | 5.955 ± 0.046
99 | ALSFYNY | -0.282 ± 0.76
100 | LHMECLKDKSCNNSSADVRG | 0.374 ± 0.62
101 | GCGSPQSTFPRERCQVLVTA | 0.829 ± 0.49
102 | VGAMSIMKVLNFHDDILTVT | inactive
103 | EYEYGGYNSMNLNYIVARSE | 0.218 ± 0.48
104 | RSGCQMKCITYRGRAGGHLV | 0.882 ± 0.31

Row | Substance | amyloid nucleation score
105 | CSPVLKSSFNALARKRMLAR | 1.29 ± 0.35
106 | IKVAEGSLVCARYGRMVRLE | 4.92 ± 0.053
107 | WRVSSSI | -0.706 ± 0.76
108 | KFSKIRFAFIIFGSKPYMRV | -0.875 ± 0.49
109 | RGVLYAKVL | 0.808 ± 0.33
110 | YFLVKFSSNTFIVWTHRYFQ | 0.057 ± 1.1
111 | YAFRSYMKFIYFCSDFFSDR | -2.32 ± 0.75
112 | VLKKA | 0.185 ± 0.8
113 | SRIIYMPPPVCHESLGKRPV | -0.296 ± 0.63
114 | GSEMIFYIAVVALCLCIPEG | 1.21 ± 0.22
115 | ISYIIKILRKVVSWDNDMEV | -1.25 ± 0.45
116 | FSFYLTQSKSALIIDVAQRI | -0.231 ± 0.49
117 | RSWIGERIIYSSMRYQCAYL | -1.42 ± 0.54
118 | LPNRVNDRDAEYHVMLLCK | 0.095 ± 0.27
119 | WWDTRRHVQCCSAEAIDFME | 1.3 ± 0.47
120 | VFILWFTVSATIKKESFGNN | -2.34 ± 1.1
121 | SSKETGRRTVDRFQYMTRYR | 1.94 ± 0.32
122 | SGIALFKPSCSVGVAQFDYE | -0.024 ± 0.45
123 | DKREQRLRQSQILMCGDGGF | 0.157 ± 0.76
124 | SMLSSMYFKFPL | 2.07 ± 0.16
125 | ERNLLRNSDDMD | -0.642 ± 1.1
126 | PSDTYNNDG | 0.751 ± 0.58
127 | YLSDNLIAFWIVHNQWMIMA | 6.005 ± 0.035
